Experimental data taken from patent US6703362 (CYTOGEN, dated 2004).

B1: PAX15 (peptide)
peptide: SYCRVKGGGEGGHTDSNLARSGCGKVARTSRLQHINPRATPPSRAETVESCLAKPHTENSFTNVWKDDKTLDRYANYEGCLWNATGVVVCTGDETQCYGTWVPIGLAIPENEGGGSEGGGSEGGGSEGGGTKPPEYGDTPIPGYTYINPLDGTYPPGTEQNPANPNPSLEESQPLNTFMFQNNRFRNRQGALTVYTGTVTQGTDPVKTYYQYTPVSSKAMYDAYWNGKFRDCAFHSGFNEDPFVCEYQGQSSDLPQPPVNAGGGSGGGSGGGSEGGGSEGGGSEGGGSEGGGSGGGSGSGDFDYEKMANANKGAMTENADENALQSDAKGKLDSVATDYGAAIDGFIGDVSGLANGNGATGDFAGSNSQMAQVGDGDNSPLMNNFRQYLPSLPQSVECRPFVFSAGKPYEFSIDCDKINLFRGVFAFLLYVATFMYVFSTFANILRNKES
notes: Assayed as M13 phage clone displaying the insert
B2: PAX14 (peptide)
peptide: RTFENDGLGVGRSIQKKSDRWYASHNIRSHFASMSPAGKAETVESCLAKPHTENSFTNVWKDDKTLDRYANYEGCLWNATGVVVCTGDETQCYGTWVPIGLAIPENEGGGSEGGGSEGGGSEGGGTKPPEYGDTPIPGYTYINPLDGTYPPGTEQNPANPNPSLEESQPLNTFMFQNNRFRNRQGALTVYTGTVTQGTDPVKTYYQYTPVSSKAMYDAYWNGKFRDCAFHSGFNEDPFVCEYQGQSSDLPQPPVNAGGGSGGGSGGGSEGGGSEGGGSEGGGSEGGGSGGGSGSGDFDYEKMANANKGAMTENADENALQSDAKGKLDSVATDYGAAIDGFIGDVSGLANGNGATGDFAGSNSQMAQVGDGDNSPLMNNFRQYLPSLPQSVECRPFVFSAGKPYEFSIDCDKINLFRGVFAFLLYVATFMYVFSTFANILRNKES
notes: as for B1
B3: PAX16 (peptide)
peptide: SWTRWGKHTHGGFVNKSPPGKNATSPYTDAQLPSDQGPPAETVESCLAKPHTENSFTNVWKDDKTLDRYANYEGCLWNATGVVVCTGDETQCYGTWVPIGLAIPENEGGGSEGGGSEGGGSEGGGTKPPEYGDTPIPGYTYINPLDGTYPPGTEQNPANPNPSLEESQPLNTFMFQNNRFRNRQGALTVYTGTVTQGTDPVKTYYQYTPVSSKAMYDAYWNGKFRDCAFHSGFNEDPFVCEYQGQSSDLPQPPVNAGGGSGGGSGGGSEGGGSEGGGSEGGGSEGGGSGGGSGSGDFDYEKMANANKGAMTENADENALQSDAKGKLDSVATDYGAAIDGFIGDVSGLANGNGATGDFAGSNSQMAQVGDGDNSPLMNNFRQYLPSLPQSVECRPFVFSAGKPYEFSIDCDKINLFRGVFAFLLYVATFMYVFSTFANILRNKES
notes: as for B1
B4: S22 (peptide)
peptide: SSSSDWGGVPGKVVRERFKGRGCGISITSVLTGKPNPCPEPKAAAETVESCLAKPHTENSFTNVWKDDKTLDRYANYEGCLWNATGVVVCTGDETQCYGTWVPIGLAIPENEGGGSEGGGSEGGGSEGGGTKPPEYGDTPIPGYTYINPLDGTYPPGTEQNPANPNPSLEESQPLNTFMFQNNRFRNRQGALTVYTGTVTQGTDPVKTYYQYTPVSSKAMYDAYWNGKFRDCAFHSGFNEDPFVCEYQGQSSDLPQPPVNAGGGSGGGSGGGSEGGGSEGGGSEGGGSEGGGSGGGSGSGDFDYEKMANANKGAMTENADENALQSDAKGKLDSVATDYGAAIDGFIGDVSGLANGNGATGDFAGSNSQMAQVGDGDNSPLMNNFRQYLPSLPQSVECRPFVFSAGKPYEFSIDCDKINLFRGVFAFLLYVATFMYVFSTFANILRNKES
notes: as for B1
B5: S15 (peptide)
peptide: RSGAYESPDGRGGRSYVGGGGGCGNIGRKHNLWGLRTASPACWDAETVESCLAKPHTENSFTNVWKDDKTLDRYANYEGCLWNATGVVVCTGDETQCYGTWVPIGLAIPENEGGGSEGGGSEGGGSEGGGTKPPEYGDTPIPGYTYINPLDGTYPPGTEQNPANPNPSLEESQPLNTFMFQNNRFRNRQGALTVYTGTVTQGTDPVKTYYQYTPVSSKAMYDAYWNGKFRDCAFHSGFNEDPFVCEYQGQSSDLPQPPVNAGGGSGGGSGGGSEGGGSEGGGSEGGGSEGGGSGGGSGSGDFDYEKMANANKGAMTENADENALQSDAKGKLDSVATDYGAAIDGFIGDVSGLANGNGATGDFAGSNSQMAQVGDGDNSPLMNNFRQYLPSLPQSVECRPFVFSAGKPYEFSIDCDKINLFRGVFAFLLYVATFMYVFSTFANILRNKES
notes: as for B1
B6: S21 (peptide)
peptide: SPRSFWPVVSRHESFGISNYLGCGYRTCISGTMTKSSPIYPRHSAETVESCLAKPHTENSFTNVWKDDKTLDRYANYEGCLWNATGVVVCTGDETQCYGTWVPIGLAIPENEGGGSEGGGSEGGGSEGGGTKPPEYGDTPIPGYTYINPLDGTYPPGTEQNPANPNPSLEESQPLNTFMFQNNRFRNRQGALTVYTGTVTQGTDPVKTYYQYTPVSSKAMYDAYWNGKFRDCAFHSGFNEDPFVCEYQGQSSDLPQPPVNAGGGSGGGSGGGSEGGGSEGGGSEGGGSEGGGSGGGSGSGDFDYEKMANANKGAMTENADENALQSDAKGKLDSVATDYGAAIDGFIGDVSGLANGNGATGDFAGSNSQMAQVGDGDNSPLMNNFRQYLPSLPQSVECRPFVFSAGKPYEFSIDCDKINLFRGVFAFLLYVATFMYVFSTFANILRNKES
notes: as for B1
B7: DAB3 (peptide)
peptide: RWCGAELCNSVTKKFRPGWRDHANPSTHHRTPPPSQSSPAETVESCLAKPHTENSFTNVWKDDKTLDRYANYEGCLWNATGVVVCTGDETQCYGTWVPIGLAIPENEGGGSEGGGSEGGGSEGGGTKPPEYGDTPIPGYTYINPLDGTYPPGTEQNPANPNPSLEESQPLNTFMFQNNRFRNRQGALTVYTGTVTQGTDPVKTYYQYTPVSSKAMYDAYWNGKFRDCAFHSGFNEDPFVCEYQGQSSDLPQPPVNAGGGSGGGSGGGSEGGGSEGGGSEGGGSEGGGSGGGSGSGDFDYEKMANANKGAMTENADENALQSDAKGKLDSVATDYGAAIDGFIGDVSGLANGNGATGDFAGSNSQMAQVGDGDNSPLMNNFRQYLPSLPQSVECRPFVFSAGKPYEFSIDCDKINLFRGVFAFLLYVATFMYVFSTFANILRNKES
notes: as for B1
B8: DAB7 (peptide)
peptide: RWCGADDPCGASRWRGGNSLFGCGLRCSAAQSTPSGRIHSTSTSAETVESCLAKPHTENSFTNVWKDDKTLDRYANYEGCLWNATGVVVCTGDETQCYGTWVPIGLAIPENEGGGSEGGGSEGGGSEGGGTKPPEYGDTPIPGYTYINPLDGTYPPGTEQNPANPNPSLEESQPLNTFMFQNNRFRNRQGALTVYTGTVTQGTDPVKTYYQYTPVSSKAMYDAYWNGKFRDCAFHSGFNEDPFVCEYQGQSSDLPQPPVNAGGGSGGGSGGGSEGGGSEGGGSEGGGSEGGGSGGGSGSGDFDYEKMANANKGAMTENADENALQSDAKGKLDSVATDYGAAIDGFIGDVSGLANGNGATGDFAGSNSQMAQVGDGDNSPLMNNFRQYLPSLPQSVECRPFVFSAGKPYEFSIDCDKINLFRGVFAFLLYVATFMYVFSTFANILRNKES
notes: as for B1
B9: DAB18 (peptide)
peptide: RSSANNCEWKSDWMRRACIARYANSSGPARAVDTKAAPAETVESCLAKPHTENSFTNVWKDDKTLDRYANYEGCLWNATGVVVCTGDETQCYGTWVPIGLAIPENEGGGSEGGGSEGGGSEGGGTKPPEYGDTPIPGYTYINPLDGTYPPGTEQNPANPNPSLEESQPLNTFMFQNNRFRNRQGALTVYTGTVTQGTDPVKTYYQYTPVSSKAMYDAYWNGKFRDCAFHSGFNEDPFVCEYQGQSSDLPQPPVNAGGGSGGGSGGGSEGGGSEGGGSEGGGSEGGGSGGGSGSGDFDYEKMANANKGAMTENADENALQSDAKGKLDSVATDYGAAIDGFIGDVSGLANGNGATGDFAGSNSQMAQVGDGDNSPLMNNFRQYLPSLPQSVECRPFVFSAGKPYEFSIDCDKINLFRGVFAFLLYVATFMYVFSTFANILRNKES
notes: as for B1

target: T1, hPEPT1 receptor domain (human PEPT1, amino acid residues 391-571), His-tag fusion protein (human, UniProt P46059 391-571); assay: phage ELISA, plate coated with hPEPT1 domain
T1 construct: purified under denaturing conditions; also called recombinant hPEPT1; not shown: poly-histidine tag (pET vector) at the NH2-terminal end
T1 sequence: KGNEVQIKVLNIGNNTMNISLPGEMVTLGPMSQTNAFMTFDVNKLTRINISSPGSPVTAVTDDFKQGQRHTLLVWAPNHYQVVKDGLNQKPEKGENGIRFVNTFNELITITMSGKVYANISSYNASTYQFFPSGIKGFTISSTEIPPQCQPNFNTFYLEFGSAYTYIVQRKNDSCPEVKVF
Protocol: (§1) 6.6. Receptor ELISA Procedure 96 well plates were coated overnight with GIT receptor, BSA and, optionally, IDE (insulin degrading enzyme, an irrelevant His-fusion protein)or hTF. The plates were blocked for one hour with 0.5% BSA-PBS. After clarification, the amplified phage were diluted 1:100 in […] plus 0.05% Tween 20 in PBS and added to the plates. Following incubation of the plates on a rotator for 1 to 2 hours, the plates were washed 5 times with 1% BSA plus 0.05% Tween 20 in PBS. […] After the plates were washed 5 times, as described above, TMB substrate was added to the wells. The plates were read at 650 nm absorbance.

Row | Binder | OD [OD]
1 | B1 | 0.301
2 | B2 | 1.1
3 | B3 | 0.648

target: T2, hSI receptor domain (human sucrase-isomaltase complex, amino acid residues 272-667), His-tag fusion protein (human, UniProt P14410 272-667); assay: phage ELISA, plate coated with hSI domain
T2 construct: also called hS1; recombinant hSI; not shown: poly-histidine tag (pET vector) at the NH2-terminal end
Protocol: as §1

T2 sequence (P14410 272-667, one chain of several): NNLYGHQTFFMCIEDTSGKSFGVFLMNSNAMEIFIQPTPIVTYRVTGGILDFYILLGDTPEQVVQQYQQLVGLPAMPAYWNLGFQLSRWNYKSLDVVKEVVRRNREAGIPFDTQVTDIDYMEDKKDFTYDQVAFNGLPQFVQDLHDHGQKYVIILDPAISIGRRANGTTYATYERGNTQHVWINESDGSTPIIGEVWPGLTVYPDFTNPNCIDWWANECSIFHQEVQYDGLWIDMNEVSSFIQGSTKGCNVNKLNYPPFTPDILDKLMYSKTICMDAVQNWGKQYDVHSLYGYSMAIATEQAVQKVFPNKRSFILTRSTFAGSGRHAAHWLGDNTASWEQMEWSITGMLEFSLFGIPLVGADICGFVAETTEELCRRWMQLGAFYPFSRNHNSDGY

Row | Binder | OD [OD]
4 | B4 | 0.399
5 | B5 | 0.478
6 | B6 | 0.845

target: T3, D2H receptor domain (human D2H transporter, amino acid residues 387-685), His-tag fusion protein (human, UniProt Q07837 387-685); assay: phage ELISA, plate coated with D2H domain
T3 construct: purified under denaturing conditions; also called recombinant D2H; not shown: poly-histidine tag (pET vector) at the NH2-terminal end
T3 sequence: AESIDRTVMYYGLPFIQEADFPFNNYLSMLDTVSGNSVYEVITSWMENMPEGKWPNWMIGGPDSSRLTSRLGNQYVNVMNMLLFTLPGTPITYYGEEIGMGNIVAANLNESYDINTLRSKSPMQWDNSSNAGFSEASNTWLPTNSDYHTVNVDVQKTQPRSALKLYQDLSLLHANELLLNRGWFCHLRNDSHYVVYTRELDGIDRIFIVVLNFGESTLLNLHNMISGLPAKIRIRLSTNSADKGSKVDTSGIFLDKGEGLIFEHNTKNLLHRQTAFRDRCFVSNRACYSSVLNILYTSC
Protocol: as §1

Row | Binder | OD [OD]
7 | B7 | 0.406
8 | B8 | 0.702
9 | B9 | 0.467
